Test results taken from patent publication US20050153896A1 (published 2005).
Ends that are not written are not given here.

B1: ~55 kDa laminin fragment obtained by elastase digestion of EHS mouse laminin (other, UniProt P19137 2690-3083, looked up)
chain: HREHGELPPEPPTLPQPELCAVDTAPGYVAGAHQFGLSQNSHLVLPLNQSDVRKRLQVQLSIRTFASSGLIYYVAHQNQMDYATLQLQEGRLHFMFDLGKGRTKVSHPALLSDGKWHTVKTEYIKRKAFMTVDGQESPSVTVVGNATTLDVERKLYLGGLPSHYRARNIGTITHSIPACIGEIMVNGQQLDKDRPLSASAVDRCYVVAQEGTFFEGSGYAALVKEGYKVRLDLNITLEFRTTSKNGVLLGISSAKVDAIGLEIVDGKVLFHVNNGAGRITATYQPRAARALCDGKWHTLQAHKSKHRIVLTVDGNSVRAESPHTHSTSADTNDPIYVGGYPAHIKQNCLSSRASFRGCVRNLRLSRGSQVQSLDLSRAFDLQGVFPHSCPGPEP
notes: domain: C-terminal globular domains of the laminin A1 chain; also called ~55 kilodalton laminin fragment; ~55 kDa fragment of laminin

Tests used:
[1] = biological target: Aβ 1-42 (beta-amyloid protein 1-42), pre-formed fibrils; test: cell-based or functional assay
[2] = biological target: Aβ (beta-amyloid protein, length not stated at the place); test: cell-based or functional assay
[3] = biological target: T1, Aβ 1-40 (beta-amyloid protein 1-40); test: solid phase binding immunoassay; ~55 kDa laminin fragment immobilized on microtiter plates, increasing concentrations of Aβ (1-40)
T1 construct: Bought from Bachem; Residues 1-40 are counted on Aβ itself; also called Alzheimer's Aβ

Binder	disruption of pre-formed Aβ 1-42 fibrils (Thioflavin T fluorometry), Aβ:peptide molar ratio 1:10 [1] [%]	inhibition of Aβ fibril formation, Aβ:peptide molar ratio 1:1 [2] [%]	Kd [3] [nM]
RKRLQVQLSIRT-NH2 [AG73 peptide (laminin alpha-1 chain globular domain-derived peptide)]	81	50	–
B1	–	–	2
